The text below walks through data of paper PMC3673938, “Two Distinct Calmodulin Binding Sites in the Third Intracellular Loop and Carboxyl Tail of Angiotensin II (AT1A) Receptor” (PLoS ONE, 2013).

The subject of test [1] is CaM in rat brain lysates. Put plainly: GST-fusion protein pull-down from rat brain lysates. In kind it is binding. Particulars: 50 pmol GST-fusion protein, 500 µg rat brain lysates, 20 mM Tris-HCl, 70 mM NaCl, pH 7.5; Ca2+ dependent; repeated five times. As for the experimental part: (§1) GST-fusion proteins were expressed in E. coli BL21 strain cells, and purified by affinity chromatography using immobilized glutathione sepharose 4B beads. Proteins were eluted by reduced glutathione in 50 mM Tris-HCl buffer (pH 8.0), and then concentrated with Centricon filters with 3 kDa MW cut-off. The eluted proteins were either used immediately or stored at −80°C for future use. For GST-fusion protein pull-down assays, fusion proteins were incubated with either cell lysates or purified protein(s) at 4°C for 3 hours, following which glutathione-sepharose 4B beads were added and incubation continued at 4°C for 1 hour. The beads were then recovered by brief centrifugation, followed by 4 washes with the corresponding incubation buffer. The fusion proteins and the proteins to which they were bound were then separated by SDS-PAGE, and identified by staining with Coomassie blue or by immunoblot.
(§2) Figure 1 Interactions of the i3 loop and carboxyl tail of the AT1A receptor with CaM. A, Construction of GST-fusion proteins. Upper panel illustrates a schematic structure of the AT1A receptor and constructs of GST-fusion proteins of the i3 loop and carboxyl tail of the receptor. The numbers represent positions of amino acids in the receptor. […]

In test [2] the test system is purified bovine brain CaM. Put plainly: GST-fusion protein pull-down with purified bovine brain CaM. Type of test: binding. Particulars: 50 pmol GST-fusion protein, 50 pmol purified bovine CaM, 100 mM Tris-HCl pH 7.5; Ca2+ dependent (0.1 mM CaCl2 vs 1 mM EGTA); repeated five times. As for the experimental part:
as §1, §2

For test [3], the system named is G protein βγ subunits. Put plainly: GST-fusion protein pull-down of G protein βγ subunits, with or without CaM. In kind it is binding, bovine. To be noted: 2 pmol GST-fusion protein, 2 pmol Gβγ, CaM pre-incubated 30 minutes, 20 mM Tris-HCl, 70 mM NaCl, 0.1 mM CaCl2, pH 7.5; 4 or 5 experiments. The method, then: as §1
Figure 7 Effect of CaM on G protein βγ subunit interaction with wild ATi3 or ATct. A. Interaction of G protein βγ subunits and ATi3 or ATct. 50 pmol of GST-ATi3(213–242) or GST-ATct(297–359) were incubated with different amounts of G protein Gβγ subunits in a buffer containing 20 mM Tris-HCl and 70 mM NaCl (pH 7.5). Interactions were assessed by GST-fusion protein pull-down assay, and blots were probed with a specific antibody against Gβ subunits (upper panel). 1 pmol of Gβγ subunit was interacted with different amounts of GST-ATi3(213–242) and GST-ATct(297–359). Interaction was assessed by immunoblot against Gβ subunits (lower panel). B. CaM inhibits the interaction between G protein Gβγ subunits and ATi3 or ATct. 2 pmol of GST-ATi3(213–242) or GST-ATct(297–359) were incubated with different concentrations of pure bovine brain CaM for 30 minutes in a buffer (20 mM Tris-HCl and 70 mM NaCl with 0.1 mM CaCl2, pH 7.5) following which 2 pmol of Gβγ subunits were added and incubated for 1 hour. GST-fusion proteins and their interacting proteins were pulled down by gluthathione-sepharose 4B beads, and subjected to immunoblot. Blots were probed with a specific antibody against Gβ subunits. The summary graph represents means ± S.E. from four independent experiments. C. Effects of CaM on the interactions between G protein βγ subunits and mutated ATi3 and ATct. The method is same as the described in the Figure 7B, except that we used mutated GST-fusion proteins, GST-ATi3(213–242)W219A, ATct(297–359)F309A, and ATct(297–359)F313A. The summary graph represents mean ± S.E. from 4 or 5 independent experiments.

B1: GST-ATct(297–359): GST fused to the carboxyl terminal tail (amino acids 297 to 359) of the AT1A receptor (protein, UniProt P25095 297-359, looked up, fragment)
chain: LNPLFYGFLGKKFKKYFLQLLKYIPPKAKSHSSLSTKMSTLSYRPSDNMSSSAKKPASCFEVE
modifications: carboxyl tail GST fusion
notes: GST fused to the carboxyl terminal tail (amino acids 297 to 359) of the AT1A receptor
On to B1, for which the “association with CaM from rat brain lysates (pull-down, in words)” value in test [1] is “associated”. The “interaction with purified CaM (pull-down, in words)” value in test [2] is listed as “associated”. Besides, in test [3], the “Gβγ binding to GST-fusion protein in the presence of 2 pmol of CaM” value is recorded as 73% and the “Gβγ binding to GST-fusion protein in the presence of 10 pmol of CaM” value amounted to 34%.

B2: GSTATct(F313A): F313A mutant of GST-ATct(297–359) (protein, UniProt P30556 297-359, looked up, fragment F313A)
chain: LNPLFYGFLGKKFKRYALQLLKYIPPKAKSHSNLSTKMSTLSYRPSDNVSSSTKKPAPCFEVE
modifications: GST fusion
For B2, in test [3], the “Gβγ binding to GST-fusion protein in the presence of 2 pmol of CaM” value turned out to be 99% and the “Gβγ binding to GST-fusion protein in the presence of 10 pmol of CaM” value turned out to be 83%.
